The data set can be described thus: soluble on expression in E. coli; label from the status in PepcDB or PDB records.
Consider “IDEKGRVIIAGIGRFGQVVNRLVRMSGIETVVLDHDMAAVQIMRRFGVKGFFGDPTRPELLQAAGLAEATVLVVAVDDRENAIKIVRYARQVRPDLHIVSRARDRVHVYELYQAGADDIVRETFDSSIRAGRYVLENMGF”, for which the “soluble on expression in E. coli” value was “not soluble”. As for “IDIKDVELTADNGKPVYATFFCPKEEIKAAVVIAPALGVDKIFYQDFALWLASYGYLVTTFDYSSMGSADKVHYKESDTTITDWAVFDCKKILEQVSIEIKDKD”, the “soluble on expression in E. coli” value is “not soluble”. On to “IDKKLTTLADLFRPPIDLMHKGSFETAKECGQMQNKWLMINIQNVQDFACQCLNRDVWSNEAVKNIIREHFIFWQVYHDSEEGQRYIQFYKLGDFPYVSILDPRTGQKLVEWHQLDVSSFLDQVTGFLGEHGQLDGLSSS”, for which the “soluble on expression in E. coli” value is reported as “soluble”. For “IFIGNLDPEIDEKLLYDTFSAFGVILQTPKIMRDPDTGNSKGYAFINFASFDASDAAIEAMNGQYLCNRPITVSYAFKKDSKG”, the “soluble on expression in E. coli” value was “soluble”. To “IGDFHYGIGASMSYLNTEVVNVNQAYQEYDYLYTKGNRIGQMYGLEAIGFFNSQQEINNSPQQTFSDVAPGDVKYKDQNGDNRIDEKDIVKMFGSSVPRFYFGFNLNFSYKRLELSADFQGMTGVTVSLLNSPLYSPLVSNGNISNTFLNEEISWTPENKTNATMPRLTTQENLNNYRASSLWYRDGSFLKLRNLLVAYTFPKSQTRFADLKVFVQGTNLFSLDNIHFADPEQLGIAYPSTRSYWAGIKLNF” belongs “not soluble”. The entry for “INYKQLQLQERTNIRKCQELLEQLNGKINLTYRADFKIPMEMTEKMQKSYTAFAIQEMLQNVFLVFRNNFSSTGWNETIVVRLLDELHQQTVFLKTVLEEKQEERLTWEMSSTALHLKSYYWRVQRYLKLMKYNSYAWMVVRAEIFRNFLIIRRLTRNFQN” is “soluble”; for “IPMRLLSDCPQFSRKTVKLLTNGGDMLELCYELRLPFVHWISVNQKSSFKRYEISHVYRRAIGHSPPNPCLQADFDIVGGTLSLTEAEVLKVIVDITTHIFHRGSCDIHLNHGDLLDAIWSWAGIKAEHRRKVAELLSMMGSLRPQSSERKLKWVFIRRQLLQELKLPEAVVNRLQTVASRFCGDADQALPRLRGALRADRPTRKALDELSNLLTYLRVWRIEEHVHIDVLMPPTESYHRNLFFQVFLTKENSSGTSNDGVLLAVGGRYDWLVQEVCDREHKMNLPGAVGVSLALETIFQHLPMDLRPIRNEVSTSVLVCSRGGGGLLVQRMELVAELWEKSIKAEFVPTPDPSLTEQYEYANEHEIKCLVIITESGVAQNQIEFVKVRHLELKKEKVVGR” it is “soluble”. Take “ISFEINGIKITTYPPPFRIFLEIDNKQEFEKLDRIRKNVDVVVLGFPVGHYDLDEVKNKVKQLVDYGYVVGIDAESPRELKEGVRAGASFVFNLNENNFEELEEIRKEAAFVVAPFNTENRGEITIDLVKKAKQKGFDKLIADPVLSPPLRGLVSSIIGYKYVRETLQDIPILMGILNVTELIDADSIGMNALLTAIAGELGISNLLIMEKGKTRWSSWEVSQATKMISVALKENRLPKDIGIDLLVLKDKRRFRESFNADVIVNRRIEPEMDNTGFAKIFVSEDGFGVEWIGKNKITIKGKDGLSIGRELIRRVKDISKEHAVYIGYELAKAEIAYQLDKNYIQDKPLF”: the “soluble on expression in E. coli” value is “not soluble”. On to “ISGFYMSIMRDITEKRSMELQLFKSEERFREIFENAMDAIIIWSNDGRIVKANQSACKIFELPMNLLLKRKLCDFLVDSQQKYSITKRKYAKYGEIREELLFQMGNGQFKELEFTSKRTILEN”, for which the “soluble on expression in E. coli” value was “not soluble”. The entry for “ISKETEEIDEQQVFIDSLSGHAQILYEKYHVLPSITIAQAILESDWGNSELAAKANNLFGVKGNYKGHHVTMETDEVEKGKRKTIRAKFRKYSTFFESMDDHAQLFVRGTSWNKKKYKPVLEAGNYKEAATALQTSGYATDPDYADKISAIVEKYDL” is “not soluble”; for “ISRLLAGQLDFRSAIRSVAAEVAHIIPHDHLDVCVLLEDGNYHTAYETGIETAWGDLAGAPVVNSPIRSLLWGEVDFLLADDAMTDPRFHFDGAFKRPIVEQSLRSRLHVPMKVQGAIIAALSCSSQEAGAYTMEDVERARIIADLLTPYFFALRAAEQAQR” it is “not soluble”; for “ITASGENRNAINDLLGAMCYDEETARTYQGYVAELDNPHTPETEEYGISSFVFKGDRPFDRQRLIAALRSTRGIVRSKGHCWISDRIDMVQVWHQAGPDLRIAPAGYWQSAGITPSNEIVVIGVNFDHAQAQQLLNDAMLSDSEVQQLLSTADAAKS” it is “not soluble”. With “ITFEIAGDKLLMTLVPERLRGETASFDIEANGKVYVERGRRITARHIKALEKDNISQVVVPSEYILGKVASKDYVDLESGEIICPANGEISLETLAKLAQAG”, the “soluble on expression in E. coli” value is recorded as “not soluble”. Consider “IVPDAQDLGKSYGIRPSFIIAQAALDSDFGEKILANKYHNLFGLLAEPGTPSITLNDSSTGKKQEKQFTHYKSWKYSMYDYLAHIKSGATGKKDSYTIMVSVKNPKTLVQKLQDSGFDNDKKYAKKMTEIIDLYDL”, for which the “soluble on expression in E. coli” value is given as “not soluble”. For “KAAPEDVRMIMIDPKMLELSIYEGIPHLLAPVVTDMKLAANALNWCVNEMEKRYRLMSFMGVRNLAGFNQKIAEAAARGEKIGNPFSLTPDDPEPLEKLPFIVVVVDEFADLMMTAGKKIEELIARLAQKARAAGIHLILATQRPSVDVITGLIKANIPTRIAFQVSSKIDSRTILDQMGAENLLGQGDMLFLLPGTAYPQRVHGAFASDEEVHRVVEYLKQFGEPDYVDDILSGGGSEELPGIGRSGDDETDPMYDEAVSVVLKTRKASISGVQRALRIGYNRAARLIDQMEAEGIVSAPEHNGNRTILVPLDNA”, the “soluble on expression in E. coli” value is “not soluble”. To “KAPNLYMTDTTGTYRYLYDVQAKYTILFFWDSQCGHCQQETPKLYDWWLKNRAKGIQVYAANIERKDEEWLKFIRSKKIGGWLNVRDSKNHTDFKITYDIYATPVLYVLDKNKVIIAKRIGYENLDDFLVQYEKSLKTK” belongs “not soluble”; to “KDFLNPKYTLENFIVGEGNRLAYEVVKEALENLGSLYNPIFIYGSVGTGKTHLLQAAGNEAKKRGYRVIYSSADDFAQAMVEHLKKGTINEFRNMYKSVDLLLLDDVQFLSGKERTQIEFFHIFNTLYLLEKQIILASDRHPQKLDGVSDRLVSRFEGGILVEIELDNKTRFKIIKEKLKEFNLELRKEVIDYLLENTKNVREIEGKIKLIKLKGFEGLERKERKERDKLMQIVEFVANYYAVKVEDILSDKRNKRTSEARKIAMYLCRKVCSASLIEIARAFKRKDHTTVIHAIRSVEEEKKKDRKFKHLVGFLEKQAFDKIC”, “soluble”; to “KDGDFLDMDWHGPNDADAPLVLVLHGLTGSSNSPYVAGLQKAMAAKGWASVALNWRGCSGEPNLLSRSYHSGASEDLAEVIAHLRLLRPLAALYAVGYSLGGNVLLKYLGESGKHSELLGAVAVSVPFRLDECANRIGQGFSKVYQRHFMREMLTYIRDKQQRFQHEGLTEGLAELSALGSLENMRTFWDFDGRVTAPLHGFVDATDYYRRASSRYYLGQIETPTLIIQSRDDPFVFPHSLPEPGELSACTEFELHAKGGHVGFVDGSLRNPTYYLERRIPSWL”, “not soluble”.

Regarding “KEKVKEPVKHLNSKNFDEFITKNKIVVVDFWAEWCAPCLILAPVIEELANDYPQVAFGKLNTEESQDIAMRYGIMSLPTIMFFKNGELVDQILGAVPREEIEVRLKSLLE”, the “soluble on expression in E. coli” value is recorded as “soluble”. “KERIIGDLSQPVAVRVRTLIQQMTLAEKVAQLVSESDSIPRLNLPAYNYWNECLHGVARAGEVTVFPQAINLASTWDTVLVKRVASAISTEARLKYLEIGKGLTYWSPTINMARDPRWGRNEETYGEDPHLTSRLGVAFVKGLQGDHPTYLKTVATIKHFVANNEENNRFSSSSQIPTKQLYEYYFPAYEACVKEANAQSVMTAYNAFNGVPPSGSHWLLDDVLRKEWGFDGFVVSDCGAIGVMNWQHRVVNSLEEAAALGVNSGCDLECGTTYKEKLVQAVEQGLISEAAIDRALTRVLTARFKLGEFDPMELVPYNHYDKKLLA”: the “soluble on expression in E. coli” value is on record as “not soluble”. The entry for “KILAVTACPTGIAHTFMAADALKEKAKELGVEIKVETNGSSGIKHKLTAQEIEDAPAIIVAADKQVEMERFKGKRVLQVPVTAGIRRPQELIEKAMNQDAPIY” is “soluble”; for “KISKISTGIPRVDELLYGGFDGRDNIVVSGNNFSQKRSFIYNFIKSSANSGMKVIIINVDGSSESLLADLARRGTDLENIILLDGFSKNFQEKVPPNAEVIDDPSNVSSVLKQYMLRAQKEKDFIFVFLSATPYLMDFNDQNRKFFVQLVHWNRKNSLLSTYVLDDFVGQTTAEWFAYMMDFSLYFKNDGDYDYMRVLSLKPVRTKDW” it is “soluble”. Turning to “KIWLFFIEQANNEIRIDLRSNGINVRDIAIKYGGGGHNNASGAIITNKKQISDVVSD”, the “soluble on expression in E. coli” value is on record as “soluble”. Regarding “KKEEASSKSYRELIIEGLTALKERKGSSRPALKKFIKENYPIVGSASNFDLYFNNAIKKGVEAGDFEQPKGPAGAVKLAKKKSPEVKKEKEVS”, the “soluble on expression in E. coli” value is given as “soluble”. As for “KKHILVYNEEADEALRQIKADRIELHQSFKASFERLNEIQQLAYTNAMTRDAALIQEPDFDPEQLESDYYRNLYRINTRRDNLNTHRALEN”, the “soluble on expression in E. coli” value is “not soluble”. For the sequence “KKSSMRKELETIQLLWHQQKGQYQLSKETIELINHKCHDLKHQVQAIRAVKDEKERETYLEKIEKSVQIYSAIVRTGNEILDTILTEKSLICENSGIHINCVADGSLLAFMNPVDLYTLFGNALDNAIEAVRKLESKEKRVIDIMLYERQSFLMLQIVNPMCGEVKFEDGLPLTTKAKNGYHGYGMKSMLHTIQKYEGHLTTEVKNGCFYFNVMLPLERDSNKK”, the “soluble on expression in E. coli” value is “not soluble”.

Consider “KLRQWLIDQIDSGKYPGLVWENEEKSIFRIPWKHAGKQDYNREEDAALFKAWALFKGKFREGIDKPDPPTWKTRLRCALNKSNDFEELVERSQLDISDPYKVYRIVPE”, for which the “soluble on expression in E. coli” value is listed as “soluble”.

Regarding “KNFDGDLNDYRQWRLAQENAAVAPAASAQSQSRKDTKRIEAQIRQEKARRGKPIQQKIDRAEKEMAQLSEIQTACEAFLAQEEAYFEENKEKLQDTLSELAKVKTQLAQIEEVWLACQEELEQIETEIEKQFAER”, the “soluble on expression in E. coli” value is recorded as “not soluble”.

As for “KNVNRVLSAEALKPGMLLTGTVSSLEDHGYLVDIGVDGTRAFLPLLKAQEYIRQKNKGAKLKVGQYLNCIVEKVKGNGGVVSLSVGHSEVSTAIATEQQSWNLNNL”, the “soluble on expression in E. coli” value is reported as “soluble”. Consider “KNVWIFAEQREGKIAPVVIELLGEGRKLAKEVDAELCAILLGKDVDGLAKELITFGADKVYVADDALLEKYTTDAYTKVIKDAIDEIKPEIMLFGATHIGRDLAPRIASRVGTGLTADCTKLEIDPEDKKIKQTRPAFGGNIMATIICPNHRPQMSTVRPGVMDKAEKDETRTGEVIALDYKITQDDIRTTVLETV”, for which the “soluble on expression in E. coli” value is recorded as “not soluble”. The entry for “KRETDNGHDVFESFEQMEKTAFVIPSAYGYDIKGYHVAPHDTPNTIIICHGVTMNVLNSLKYMHLFLDLGWNVLIYDHRRHGQSGGKTTSYGFYEKDDLNKVVSLLKNKTNHRGLIGIHGESMGAVTALLYAGAHCSDGADFYIADCPFACFDEQLAYRLRAEYRLPSWPLLPIADFFLKLRGGYRAREVSPLAVIDKIEKPVLFIHSKDDDYIPVSSTERLYEKKRGPKALYIAENGEHAMSYTKNRHTYRKTVQEFLDNMNDSTE” is “not soluble”.

Take “KRKTKEQLAILKSFFLQCQWARREDYQKLEQITGLPRPEIIQWFGDTRYALKHGQLKWFRDNA”: the “soluble on expression in E. coli” value is given as “soluble”.

The record behind these values is the DeepSol protein solubility set.
